Consider 1 protein from article PMC1368978, “Crystal structure of a DNA polymerase sliding clamp from a Gram-positive bacterium” (BMC Structural Biology, 2006).

The data set deals with the molecule itself. Briefly: crystal structure; hanging drop, 20 mg/mL protein in Buffer A + 100 mM NaCl; 30% PEG 2000 MME, 100 mM sodium acetate pH 4.5, 200 mM ammonium sulfate, 20°C; space group P2(1), one dimer in the asymmetric unit; refined to 2.1 Å.

B1: β subunit of the DNA polymerase III holoenzyme of Streptococcus pyogenes (natural protein)
chain: MIQFSINRTLFIHALNTTKRAISTKNAIPILSSIKIEVTSTGVTLTGSNGQISIENTIPVSNENAGLLITSPGAILLEASFFINIISSLPDISINVKEIEQHQVVLTSGKSEITLKGKDVDQYPRLQEVSTENPLILKTKLLKSIIAETAFAASLQESRPILTGVHIVLSNHKDFKAVATDSHRMSQRLITLDNTSADLMVVLPSKSLREFSAVFTDDIETVEVFFSPSQILFRSEHISFYTRLLEGNYPDTDRLLMTEFETEVVFNTQSLRHAMERAFLISNATQNGTVKLEITQNHISAHVNSPEVGKVNEDLDIVSQSGSDLTISFNPTYLIESLKAIKSETVKIHFLSPVRPFTLTPGDEEESFIQLITPVRTN
notes: β subunit (sliding clamp) of DNA polymerase III, Streptococcus pyogenes; residues up to Thr 377 are named in the model; A selenomethionine-derivatized form was also made and crystallized for phasing (MAD); also called S. pyogenes β subunit; S. pyogenes β clamp; source: E. coli BLR DE3 (plasmid pETSpdnaN), purified (ammonium sulfate cut, Fast Flow Q, EAH-Sepharose 4B, Mono Q)
As usually defined, the stoichiometry N is a count of units in the complex or per binding partner. On to B1, for which the “stoichiometry N” value amounted to 2.
